Data taken from article PMC2169435.

Tests used:
[1] = target: PS1 COOH-terminal bait (human); experiment: two-hybrid
[2] = target: PS2 COOH-terminal 39-amino acid bait (residues K410-I448) (human) (UniProt P49810); experiment: two-hybrid
PS2 COOH-terminal 39-amino acid bait (residues K410-I448) (human), sequence (P49810 410-448): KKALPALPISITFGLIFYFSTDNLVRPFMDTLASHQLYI

fold beta-galactosidase activity over negative-control baits [1] [fold] | fold beta-galactosidase activity over negative-control baits [2] [fold] | Substance
> 12 | > 55 | near full-length ubiquilin Y2H prey clone (residues 37-595) (domain or fragment)
 | > 55 | ubiquilin Y2H prey clone encoding the COOH-terminal 218 residues (domain or fragment)
